Patent EP0599274A1

Target: HER4/p180erbB4 (human prototype HER4 polypeptide) (human)
Assay: cell-based or functional assay

increase in tyrosine phosphorylation of HER4 after 15 minutes incubation: 2.4 to 4 fold
Substance: recombinant rat neu differentiation factor (NDF) (from UniProt P43322 14-241) (ligand)
